Measured values from patent US20200164014A1, “MESENCHYMAL STEM CELL ATTRACTING AGENT” (Shiseido Company, Ltd., priority 2017, published 2020).

Tested on: young fibroblasts
Assay: Addition of aging factor proteins to young fibroblasts, quantitative RT-PCR
Type: cell-based
Details: protein added at 10 μg/ml vs 0 μg/ml, cultured 2 days
Experimental: Dermal fibroblasts collected from the back skin of an adult were cultured in Dulbecco's Modified Eagle Medium supplemented with 10% FBS. As normal fibroblasts (young fibroblasts), cells with a culture period of less than 1 month and a Pdl<30 were used. The same cells were cultured for 3 months or more and slowly proliferating cells (having a doubling time of less than 0.5/week and a Pdl>50) were used as the senescent fibroblasts. Normal fibroblasts were seeded in the upper layer of a six-well Transwell system (Falcon; Franklin Lakes, N.J.) filled with Dulbecco's Modified Eagle Medium supplemented with 10% FBS to a density of 1250 cells/cm^2. Sub-constructed senescent fibroblasts and normal fibroblasts were each seeded in two wells of the lower layer of the Transwell system. After combining the upper layer and the lower layer of the Transwell system for 2 days under a humidified atmosphere at 37° C. and 5% CO2, the cells in the upper layer and the cells in the lower layer were recovered using Qiazole (Qiagen).
From the recovered cell lysate, RNA was extracted using an RNeasy Protect Kit (Qiagen) according to the product description and […] into cDNA using Superscript VILO (Invitrogen) according to the product description. Real time PCR was performed on LightCycler (Roche) using […] as an internal standard and using primer pairs for the following genes. The cycle threshold (Ct value) calculated using Lightcycler software ver. 3.5 was normalized for each sample GAPDH mRNA.
Proteins of the candidate aging factors (IGFBP 7 and RSPO 4) (purchased from Serotec, R&D SYSTEMS) were added to a medium for culturing young fibroblasts at concentrations of 0 μg/ml and 10 μg/ml, cultured for 2 days, and the cells were collected using Qiazole (Qiagen). The recovered cell lysate was examined for the expression levels of MMP1 and collagen in the same manner as described above for quantitative RT-PCR. IGFBP7 and RSPO4 reduced the expression of collagen and increased the expression of MMP1.

B1: RSPO4: R-spondin family, member 4, purchased protein, candidate aging factor (protein, UniProt Q2I0M5 20-234, looked up)
R-spondin-4: LNRRKKQVGTGLGGNCTGCIICSEENGCSTCQQRLFLFIRREGIRQYGKCLHDCPPGYFGIRGQEVNRCKKCGATCESCFSQDFCIRCKRQFYLYKGKCLPTCPPGTLAHQNTRECQGECELGPWGGWSPCTHNGKTCGSAWGLESRVREAGRAGHEEAATCQVLSESRKCPIQRPCPGERSPGQKKGRKDRRPRKDRKLDRRLDVRPRQPGLQP
For B1, the “expression of MMP1” value was “increased” and the expression of collagen was “reduced”.

B2: IGFBP7: insulin-like growth factor binding protein 7, purchased protein, candidate aging factor (protein, UniProt Q16270 27-282, looked up)
Insulin-like growth …: SSSDTCGPCEPASCPPLPPLGCLLGETRDACGCCPMCARGEGEPCGGGGAGRGYCAPGMECVKSRKRRKGKAGAAAGGPGVSGVCVCKSRYPVCGSDGTTYPSGCQLRAASQRAESRGEKAITQVSKGTCEQGPSIVTPPKDIWNVTGAQVYLSCEVIGIPTPVLIWNKVKRGHYGVQRTELLPGDRDNLAIQTRGGPEKHEVTGWVLVSPLSKEDAGEYECHASNSQGQASASAKITVVDALHEIPVKKGEGAEL
With B2 the “expression of MMP1” value was “increased” and the expression of collagen was “reduced”.
